Measurements as given in patent US20240024520A1, “AUTONOMOUS KNOB DOMAIN PEPTIDES” (UCB BIOPHARMA SRL, priority 2020, published 2024).

Target: C5 (Homo sapiens, UniProt P01031)
Experiment: Monoclonal phage screening ELISA, human C5
Type: binding
Method: For the C5 libraries, a single round of enrichment was performed with either human or rat C5 protein. […] Phage were blocked for 30 minutes. Biotinylated antigen was added to the blocked phage at a concentration of 100 nM and incubated at room temperature with mixing.
Colonies were picked into a 96-well culture plate containing selective medium 2TY supplemented with 1% Glucose and 100 μg/ml Carbenicillin and was incubated at 37° C. until wells reached mid-log phase of growth prior to addition of M13K07 helper phage. The block was incubated without shaking for 1 hour to achieve infection and phage production using continued culture in selective media supplemented with 50 μg/ml Kanamycin and 100 μg/ml Carbenicillin.
Binding to antigen was assessed by monoclonal phage ELISA, 96-well flat bottom Nunc MaxiSorp plates (Thermofisher) were coated with a 2.5 μg/ml solution of human, mouse, or rat serum albumin, human C5 or mouse C5 diluted with PBS, and left overnight at 4° C. Negative control plate and Anti-myc tag plate were also prepared.
Monoclonal phage rescue supernatants were blocked with an equal volume of a 2% milk (w/v) in PBS, for serum albumin proteins, or 2% BSA and 2% milk (w/v) in PBS solution. The coating solution was removed from coated Nunc plates and each plate was blocked with 1% BSA in PBS (for C5 libraries) or 1% milk powder (for albumin library). Both phage and Nunc plates were blocked for 1 hour at room temperature. Nunc plates were washed using a 96-well microplate washer (BioTek) with a PBS solution contain 0.1% Tween20 (Sigma Aldrich). 100 of blocked phage solution was added to each well of Nunc MaxiSorp plate and left shaking at room temperature for 1 hour. Plates were washed and dried as previously described. 100 of an Anti-M13-Horse radish peroxidase conjugated antibody (GE Healthcare) diluted (1:5,000) in a 1% BSA or milk solution was added to each well and left shaking at room temperature for 1 hour. Plates were washed again and 50 μL of TMB solution (Merck Millipore) was added to each well. Plates were left shaking for 10 minutes. Absorbance was measured at 630 nm and 490 nm. Binding signals were obtained where Absorbance at 630 nm was >3-times the signal upon irrelevant antigen.
By monoclonal phage ELISA the following ultralong CDR-H3 sequences were identified as binders (OD>0.2 AU): […]

[1] = knob domain of the anti-C5 ultralong CDR-H3
[2] = anti-C5 ultralong CDR-H3, binder = OD>0.2 AU

Chain of C5 (P01031 19-1676): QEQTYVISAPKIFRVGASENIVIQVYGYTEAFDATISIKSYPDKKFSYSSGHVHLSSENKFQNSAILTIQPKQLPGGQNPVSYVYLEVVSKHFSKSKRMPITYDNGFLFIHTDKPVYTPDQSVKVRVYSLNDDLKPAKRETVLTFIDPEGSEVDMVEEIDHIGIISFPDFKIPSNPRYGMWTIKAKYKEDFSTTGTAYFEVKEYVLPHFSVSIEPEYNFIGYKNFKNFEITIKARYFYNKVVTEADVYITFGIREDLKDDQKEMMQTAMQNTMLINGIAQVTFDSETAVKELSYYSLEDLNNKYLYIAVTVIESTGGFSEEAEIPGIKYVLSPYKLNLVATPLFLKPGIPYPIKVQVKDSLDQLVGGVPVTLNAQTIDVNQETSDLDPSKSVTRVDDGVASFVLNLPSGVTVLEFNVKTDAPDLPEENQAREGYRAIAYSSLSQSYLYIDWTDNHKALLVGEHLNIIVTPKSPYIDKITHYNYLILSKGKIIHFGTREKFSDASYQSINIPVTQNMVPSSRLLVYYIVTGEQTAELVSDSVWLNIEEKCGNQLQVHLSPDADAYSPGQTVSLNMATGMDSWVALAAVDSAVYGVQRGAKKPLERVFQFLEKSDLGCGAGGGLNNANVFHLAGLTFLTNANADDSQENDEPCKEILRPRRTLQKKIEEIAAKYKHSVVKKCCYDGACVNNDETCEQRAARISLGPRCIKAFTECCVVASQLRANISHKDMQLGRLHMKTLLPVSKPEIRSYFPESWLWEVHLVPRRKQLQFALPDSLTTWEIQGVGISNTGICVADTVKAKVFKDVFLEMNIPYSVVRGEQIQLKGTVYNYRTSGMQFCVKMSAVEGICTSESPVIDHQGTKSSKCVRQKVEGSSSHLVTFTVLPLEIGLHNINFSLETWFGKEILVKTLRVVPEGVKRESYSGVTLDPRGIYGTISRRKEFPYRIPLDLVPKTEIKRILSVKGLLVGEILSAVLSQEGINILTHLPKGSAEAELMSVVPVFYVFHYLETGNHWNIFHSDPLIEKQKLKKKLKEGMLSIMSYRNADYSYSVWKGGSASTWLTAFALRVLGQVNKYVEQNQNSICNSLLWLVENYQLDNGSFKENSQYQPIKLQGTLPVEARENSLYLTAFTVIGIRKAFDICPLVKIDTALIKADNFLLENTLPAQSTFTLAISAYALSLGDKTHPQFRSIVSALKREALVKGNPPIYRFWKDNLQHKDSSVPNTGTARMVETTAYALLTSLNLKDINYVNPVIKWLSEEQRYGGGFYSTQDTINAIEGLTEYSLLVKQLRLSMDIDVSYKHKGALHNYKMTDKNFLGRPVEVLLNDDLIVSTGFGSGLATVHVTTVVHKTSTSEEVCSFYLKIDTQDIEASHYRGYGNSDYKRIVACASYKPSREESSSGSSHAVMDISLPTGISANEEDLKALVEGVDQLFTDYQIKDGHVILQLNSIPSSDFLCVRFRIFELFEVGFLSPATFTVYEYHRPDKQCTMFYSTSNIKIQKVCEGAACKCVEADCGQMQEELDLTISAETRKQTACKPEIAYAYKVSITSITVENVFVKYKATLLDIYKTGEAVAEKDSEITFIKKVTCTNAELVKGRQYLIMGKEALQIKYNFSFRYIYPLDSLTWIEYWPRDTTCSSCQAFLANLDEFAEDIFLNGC

Substance	Specificity [1]	Specificity [2]
588 (SCPDGYHFIEPCHSGLCWREGACNGDGICANGLGRCRTVSETST; Anti-C5 ultralong CDR-H3 knob domain) [compound 588]	Human	
609 (SGCPPGYKSGVDCSPGSEYKWGCYAVDGRRYGGYGADSGVGST; Anti-C5 ultralong CDR-H3 knob domain) [compound 609]	Human	
586 (NCPDGYKYNGFCTPDGGCSRVSSWGWDRSCISPT; Anti-C5 ultralong CDR-H3 knob domain) [compound 586]	Human	
570 (TTVHQRTIKSGCPPGYKSGVDCSPGSEYKWGCYAVDGRRYGGYGADSGVGSTYTHEFYVN; Anti-C5 ultralong CDR-H3) [compound 570]		Human
549 (TTVHQRTLKNRNCPDGYGYQRHCTVGEDCTDSCCDRYGLCTTSTETYTYEWYVD; Anti-C5 ultralong CDR-H3) [compound 549]		Human
585 (RCPDGCFLSSYCPVGYACSGFACCDCGGYDYAGGVRGGRCSVRSTT; Anti-C5 ultralong CDR-H3 knob domain) [compound 585]	Human	
541 (TTVHQRTIKSGCPPGYKSGVDCSPGSECKWGCYAVDGRRYGGYGADSGVGSTYTHEYHVE; Anti-C5 ultralong CDR-H3) [compound 541]		Human
571 (TTVHQRTIKSGCPPGYKSGVDCSPGSECKWGCYAVDGRRYGGYGADSGVGSTYTHEWYVD; Anti-C5 ultralong CDR-H3) [compound 571]		Human
590 (NCPDGYGYQRHCTVGEDCTDHCCDAYGLCTS; Anti-C5 ultralong CDR-H3 knob domain) [compound 590]	Human	
546 (TTVHQRTKKTCPLGYDLNDRCDHFNTCRVEECCKNGVVNAYGICEYAGGSATYTYEWYVE; Anti-C5 ultralong CDR-H3) [compound 546]		Human
567 (TTVHQRTTKRCPSNNEDATACRYSSVCGDYVCEGLSESYAQGWGACRRYACRDSYEWYVD; Anti-C5 ultralong CDR-H3) [compound 567]		Human
601 (NCPDGYEYNGFCTPDGGCSRVSNWGWDRSCISPT; Anti-C5 ultralong CDR-H3 knob domain) [compound 601]	Human	
581 (HCSPGSDCSWGCYDKDDRRVDGAGVASGLGST; Anti-C5 ultralong CDR-H3 knob domain) [compound 581]	Human	
593 (NCPDGYGYQRHCTVGEDCTERCCDNYGLCTSYTDT; Anti-C5 ultralong CDR-H3 knob domain) [compound 593]	Human	
583 (SCPDGYHFIEPCHSGLCWREGACNGDGICANGLGRCRTVSETST; Anti-C5 ultralong CDR-H3 knob domain) [compound 583]	Human	
561 (TTVHQQTNKRRQNCPDGYEYNGFCTPDGGCSRVSNWGWDRSCISPTYTYTYEWYVE; Anti-C5 ultralong CDR-H3) [compound 561]		Human
605 (GCPPGYKSGVDCSPGSECKWGCYAVDGRRYGGYGADSGVGST; Anti-C5 ultralong CDR-H3 knob domain) [compound 605]	Human	
606 (TCPEGLVYNSDQSRCCAADSGVCWEYWRGERVTRGFT; Anti-C5 ultralong CDR-H3 knob domain) [compound 606]	Human	
602 (SCPDGYCDCNGCGYGNGCSRGGCFDFRLYSGYSADIVVSTT; Anti-C5 ultralong CDR-H3 knob domain) [compound 602]	Human	
603 (SCPDGWGHSDDCNCACSANAYACCKRDWLLPGPSCECSTYCVS; Anti-C5 ultralong CDR-H3 knob domain) [compound 603]	Human	
579 (HCSPGSDCSWGCYDRDDRRVDGAGADSGLGSTST; Anti-C5 ultralong CDR-H3 knob domain) [compound 579]	Human	
582 (GCPPGYKSGVDCSPGSECKWGCYAVDGRRYGGYGADSGVGST; Anti-C5 ultralong CDR-H3 knob domain) [compound 582]	Human	

Substance	Specificity [1]	Specificity [2]
580 (SCPDGYKDNRFCSPDGGCSAVSHWGWDSSCVS; Anti-C5 ultralong CDR-H3 knob domain) [compound 580]	Human	
600 (RCPSNNEDATACRYSSVCGDYVCEGLSESYAQGWGACRRYACRDS; Anti-C5 ultralong CDR-H3 knob domain) [compound 600]	Human	
608 (RCPSNNEEATACRYSSVCGDYVCEGLSESYAQGWGACRRYACRDS; Anti-C5 ultralong CDR-H3 knob domain) [compound 608]	Human	
587 (GCPPGTVAGVHCSPGSDCSWGCYDRDDRRVDGAGADSGLGSTST; Anti-C5 ultralong CDR-H3 knob domain) [compound 587]	Human	
566 (TTVVQRTKRTCPEGLVYNSDQSRCCAADSGVCWEYWRGERVTRGFTYEWYVD; Anti-C5 ultralong CDR-H3) [compound 566]		Human
560 (TTVHQRTAKRCPSNNEDATACRYSSVCGDYVCEGLSESYAQGWGACRRYACRDSYEWYVD; Anti-C5 ultralong CDR-H3) [compound 560]		Human
604 (SCPDGWSDCHGSCDGVGCTGSDCVRYNARGYGRHACSG; Anti-C5 ultralong CDR-H3 knob domain) [compound 604]	Human	
543 (TTVHQRTLKNRNCPDGYGYQRHCTVGEDCTDHCCDAYGLCTSYTYTYTYEWYVD; Anti-C5 ultralong CDR-H3) [compound 543]		Human
569 (TTVHQRTAKRCPSNNEEATACRYSSVCGDYVCEGLSESYAQGWGACRRYACRDSYEWYVD; Anti-C5 ultralong CDR-H3) [compound 569]		Human
548 (TTVHQRTLKNRNCPDGYGYQRHCTVGEDCTDSCCDRYGLCTTSTETYTYEWYVD; Anti-C5 ultralong CDR-H3) [compound 548]		Human
550 (TTVHQRTLHNRNCPDGYGYQRHCTVGEDCTERCCDNYGLCTSYTDTYTYEFYVN; Anti-C5 ultralong CDR-H3) [compound 550]		Human
592 (HCTVGEECTDSCCDRYGLCTTSTET; Anti-C5 ultralong CDR-H3 knob domain) [compound 592]	Human	
607 (TCPDGYSYSEGCGKGDDCGGVHCCANGGVTCWYRHCCSTGTDT; Anti-C5 ultralong CDR-H3 knob domain) [compound 607]	Human	
591 (NCPDGYGYQRHCTVGEDCTDSCCDRYGLCTTSTET; Anti-C5 ultralong CDR-H3 knob domain) [compound 591]	Human	
545 (TTVHQRTLKNRNRPEGYGYQRHCTVGEECTDSCCDRYGLCTTSTETYTYEWYVD; Anti-C5 ultralong CDR-H3) [compound 545]		Human
589 (GCPTGTVAGVHCSPGSDCSWGCYDADDRRVDGYGADSGVGSP; Anti-C5 ultralong CDR-H3 knob domain) [compound 589]	Human	
547 (TTVHQRTLKNRNCPDGYGYQRHCTVGEDCTDSCCDRYGLCTTSTETYTYEFYVN; Anti-C5 ultralong CDR-H3) [compound 547]		Human
559 (TTVHQRTAKRCPSNNEDATACRYSSVCGDYVCEGLSESYAQGWGACRRYACRDSYEWYVD; Anti-C5 ultralong CDR-H3) [compound 559]		Human
584 (GCPTGTVAGVHCSPGSDCSWGCYDKDDRRVDGAGAASGLGST; Anti-C5 ultralong CDR-H3 knob domain) [compound 584]	Human	
565 (TTVHQRTIKSGCPPGYKSGVDCSPGSECKWGCYAVDGRRYGGYGADSGVGSTYTHELYVE; Anti-C5 ultralong CDR-H3) [compound 565]		Human
562 (TTVHQQTTKKSSCPDGYCDCNGCGYGNGCSRGGCFDFRLYSGYSADIVVSTTYTHDFYID; Anti-C5 ultralong CDR-H3) [compound 562]		Human
544 (TTVHQRTLKNRNCPDGYGYQRHCTVGEDCTDSCCDRYGLCTTSTETYTYELYVE; Anti-C5 ultralong CDR-H3) [compound 544]		Human
